Laboratory results taken from article PMC3388541.

Experiments:
Conditions in all cases: remark: other sources report otherwise
[1] = target: T1, ScHSP26 (Saccharomyces cerevisiae), P15992; assay: native MS
T1 chain: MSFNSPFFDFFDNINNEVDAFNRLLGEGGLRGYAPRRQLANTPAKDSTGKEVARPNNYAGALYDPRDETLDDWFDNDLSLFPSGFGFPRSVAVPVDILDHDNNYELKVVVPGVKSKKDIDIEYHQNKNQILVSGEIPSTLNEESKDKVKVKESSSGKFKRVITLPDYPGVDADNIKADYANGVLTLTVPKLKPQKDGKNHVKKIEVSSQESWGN

[2] = target: T1, ScHSP26 (Saccharomyces cerevisiae), …; assay: SEC-MALS
[3] = target: T1, ScHSP26 (Saccharomyces cerevisiae), …; assay: native MS
[4] = target: T1, ScHSP26 (Saccharomyces cerevisiae), …; assay: native MS
[5] = target: T1, ScHSP26 (Saccharomyces cerevisiae), …; assay: native MS
[6] = target: T1, ScHSP26 (Saccharomyces cerevisiae), …; assay: native MS
[7] = target: T1, ScHSP26 (Saccharomyces cerevisiae), …; assay: native MS
[8] = target: T1, ScHSP26 (Saccharomyces cerevisiae), …; assay: native MS

B1: ScHSP26, P15992 1-214 (natural protein)
chain: T1 chain
- stoichiometry N [1]: 24 to 42 subunits
- stoichiometry N [2]: 34 subunits
- stoichiometry N [3]: 2 subunits
- stoichiometry N [4]: 32 to 42 subunits
- stoichiometry N [5]: 2 subunits
- stoichiometry N [6]: 40 subunits
- stoichiometry N [7]: 2 subunits
- stoichiometry N [8]: 40 subunits
